Laboratory results published in PMC5986797, “Laminin heparin-binding peptides bind to several growth factors and enhance diabetic wound healing” (Nature Communications, 2018).

Experiments:
Design in all cases: species or system human
Details in all cases: 1 µg/mL LG domain coated; 1 μg/mL GF; vs BSA-coated wells; n = 4
FGF-2 = assay: ELISA: FGF-2 binding to laminin LG domain / laminin peptide
Protocol: (§1) ELISA tests were performed as described above. In brief, ELISA plates were coated with 1 μg/mL of laminin alpha 3 LG domain recombinant protein, laminin alpha 4 LG domain recombinant protein (R&D Systems), laminin alpha 5 LG domain recombinant protein (LD BioPharma), or laminin peptide (sequences are described in Supplementary Table 1, chemically synthesized by Genscript) in PBS for 2 h at 37 °C. A concentration of 1 μg/mL of BSA served as non-binding protein control. After blocking with 2% BSA PBS-0.05% Tween 20 (PBS-T) solution, 1 μg/mL of the recombinant human proteins (VEGF-A121, VEGF-A165, PlGF-1, PlGF-2, PDGF-BB, or FGF-2) or 10 μg/mL of biotinylated heparin (Sigma-Aldrich) were added. Bound GF was detected with biotinylated antibodies for human VEGF-A, PlGF, PDGF-BB (R&D Systems, Catalog No. DY220, 1:180 dilution), or FGF-2 (R&D Systems). The antibodies were detected by streptavidin-HRP (R&D Systems).

PlGF-1 = assay: ELISA: PlGF-1 binding to laminin LG domain / laminin peptide
Protocol: as §1

PlGF-2 = assay: ELISA: PlGF-2 binding to laminin LG domain / laminin peptide
Protocol: as §1

PDGF-BB = assay: ELISA: PDGF-BB binding to laminin LG domain / laminin peptide
Protocol: as §1

VEGF-A165 = assay: ELISA: VEGF-A165 binding to laminin LG domain / laminin peptide
Protocol: as §1, with “ELISA plates were coated with 1 μg/mL of laminin alpha 3 LG domain” left out

VEGF-A121 = assay: ELISA: VEGF-A121 binding to laminin LG domain / laminin peptide
Protocol: as §1

B1: LAMA5_3026–3482: laminin alpha 5 LG domain recombinant protein (LD BioPharma) (protein)
chain: AIQVFLLGGSRKRVLVRVERATVYSVEQDNDLELADAYYLGGVPPDQLPPSLRRLFPTGGSVRGCVKGIKALGKYVDLKRLNTTGVSAGCTADLLVGRAMTFHGHGFLRLALSNVAPLTGNVYSGFGFHSAQDSALLYYRASPDGLCQVSLQQGRVSLQLLRTEVKTQAGFADGAPHYVAFYSNATGVWLYVDDQLQQMKPHRGPPPELQPQPEGPPRLLLGGLPESGTIYNFSGCISNVFVQRLLGPQRVFDLQQNLGSVNVSTGCAPALQAQTPGLGPRGLQATARKASRRSRQPARHPACMLPPHLRTTRDSYQFGGSLSSHLEFVGILARHRNWPSLSMHVLPRSSRGLLLFTARLRPGSPSLALFLSNGHFVAQMEGLGTRLRAQSRQRSRPGRWHKVSVRWEKNRILLVTDGARAWSQEGPHRQHQGAEHPQPHTLFVGGLPASSHSSKLP
For B1, the “binding to FGF-2 (ELISA), recombinant LG domains” value (FGF-2) was “bound”, the “binding to PlGF-1 (ELISA), recombinant LG domains” value (PlGF-1) was “did not show any binding” and the “binding to PlGF-2 (ELISA), recombinant LG domains” value (PlGF-2) was “bound”. For the same molecule, the “binding to PDGF-BB (ELISA), recombinant LG domains” value (PDGF-BB) was “bound”, the “binding to VEGF-A165 (ELISA), recombinant LG domains” value (VEGF-A165) was “bound” and the “binding to VEGF-A121 (ELISA), recombinant LG domains” value (VEGF-A121) was “did not show any binding”.
